Molecular target: the molecule itself
Assay: negative-stain transmission electron microscopy and 2D classification of purified His-SYMREM1 (self-assembly)

B1: His-SYMREM1 (purified, recombinant Medicago truncatula SYMREM1 protein) (other)
chain: MEESKNKQLELVDTLTPLPQSESEPREFSYFLEEKEPGNEGTSSSVVKQERVVSDHATSSVDQTTAAGTDTKDSVDRDAVLARVESQKRLALIKAWEENEKTKVENRAYKMQSAVDLWEDDKKASIEAKFKGIEVKLDRKKSEYVEVMQNKIGEIHKSAEEKKAMIEAQKGEEILKVEETAAKFRTRGYQPRRLLGCFSGLRFFS
notes: also called Symbiotic Remorin 1; recombinant SYMREM1; not shown: N-terminal His tag and linker from the pDEST17 Gateway vector
B1: binds.
